Laboratory results as given in the DeepSol protein solubility set.

assay: soluble on expression in E. coli; label from the status in PepcDB or PDB records

| Sequence | soluble on expression in E. coli |
| --- | --- |
| MNSVLSNIEKLDTYILRRNEYVAESKDEPNKLNTSRKLEVTTKKNQSNNKKRPPPINKARKSLPSIFRRAEENKDSAQIITPTGSKIIGSPLYKRSKSDSFFDHAFNFDKNLGKGSFGEVVAATCRSTSKKFAIKKIPFSKLSKDQYREAYGHMNIPCHPNIVRFHQAWIDKQILHIQLEMCDKSLAAYCHGIDWLEDKELWNVFLDILQGLGHLHNNFMLHNDIKPDNIFMTKNKVCKLGDFGLISDMRSEPINNSSNKHYQSEGDGKYCSKEAINGTLSIFSDIFSFGISILEVGTNIHLPSYGTGWEPIRKWEIPEEILEPMSDELRELVKQMMDKAPTRRPTCSELMKNHVVKEKLRIRKQEVEHIPSESQFQPISYLTTESPLGSRESSCSSIDFLDHFENAEKKTPFVSKLNFDLEDDEDEYEVFSPPRTPVKKSRYQQTMPEVSPPRKIQKLFQRKNLFDE | not soluble |
| MNTASLVRSLSRVALRSSQVVRMAAPRHFSQSAKVLSVTPELQQALNREIEAEQQLSSDNLQGAVAPTFAGFQVTNKDAEVRLTKKNGSEDILVVFNVNHSVDMDEGFDDEPSQAVAPVPVAMPPFTVEITKGDQRLCFHLELVPVDDQPDEYDFRVEEFYVAPSAKNGNEDVPSEVYASSGKYIDPDLHDLLFVRYLEERGLDARFCKTLVAYATHYEHSQYVGLLDKIKKFISK | not soluble |
| MNTELQPKLEKSAVNFQAKPRKQKIRKDPNAPFIREKLELPDGHNKLLLHSCCAPCSGEVMEAILASGIEFTIYFYNPNIHPLKEYLIRKEENIRFAKKFGIPFIDADYDRQNWFDRAKGMEWEPERGIRCTMCFDMRFEKAAEYAHKHGFPVFTSCLGISRWKDMNQINGCGHRAAEKYDDVIYWDYNWRKEGGSQRMIEISKRERFYQQEYCGCVYSLRDSNKWREETGRQKIEIGKLYYSAD | not soluble |
| MNTLTTTSVVLPAPRPAINQGIDINNEMVLNHTAIYENCLAQVTQENTVENALMLLDPYGTAPLSAYAGVWSLEPAEIIVTVQDAAKTAMPVEHLYTLTAGANLLPVLGLVADTENRIVFSQADTPLAVYTLITQPLPPVDSAEVVLGFPIINVTQPATDANKMAPGFYFITHFDRYNYALDQNGLVRWYVTQDYPSYNFVRIDNGHFLTTSEAKNTYLDMYEFDMMGRLHTFYNLDNQFHHSIWPWDSNTIVAPSEYTSGRPDDLKTNEDGVSVVDLTTGLETAYYDMAKVLDTTRVSRPSGTAPGEDPTVKDWLHINQSYVNETNQLLIASGRHQSAVFGVDLQTQALRFILSTHEDWDDAYQPYLLTPVDSEGVALYDFSKQEDIDAADRDFWTWGQHNVVEIANNTPGIVEFMVFDNGNYRSRDDSKSLLPPDNYSRIVHFVVNMNEMTVMRPFEYGKELGARGYSSCVSAKAIQQNGNIVVHFADCTFDENGRAISCQPGESDIIDPQAGSEAMGLLILQEIAPTEKTVLFEATMTSGYYKNAETNGEGYRYDITSFRVYKMDLYALEHHHHHH | soluble |
| MNTSELETLIRTILSEQLTTPAQTPVQPQGKGIFQSVSEAIDAAHQAFLRYQQCPLKTRSAIISAMRQELTPLLAPLAEESANETGMGNKEDKFLKNKAALDNTPGVEDLTTTALTGDGGMVLFEYSPFGVIGSVAPSTNPTETIINNSISMLAAGNSIYFSPHPGAKKVSLKLISLIEEIAFRCCGIRNLVVTVAEPTFEATQQMMAHPRIAVLAITGGPGIVAMGMKSGKKVIGAGAGNPPCIVDETADLVKAAEDIINGASFDYNLPCIAEKSLIVVESVAERLVQQMQTFGALLLSPADTDKLRAVCLPEGQANKKLVGKSPSAMLEAAGIAVPAKAPRLLIALVNADDPWVTSEQLMPMLPVVKVSDFDSALALALKVEEGLHHTAIMHSQNVSRLNLAARTLQTSIFVKNGPSYAGIGVGGEGFTTFTIATPTGEGTTSARTFARSRRCVLTNGFSIR | not soluble |
| MNTYAQESKLRLKTKIGADGRCVIEDNFFTPPFKLMAPFYPKDDLAEIMLLAVSPGMMRGDAQDVQLNIGPNCKLRITSQSFEKIHNTEDGFASRDMHIVVGENAFLDFAPFPLIPFENAHFKGNTTISLRSSSQLLYSEIIVAGRVARNELFKFNRLHTKISILQDEKPIYYDNTILDPKTTDLNNMCMFDGYTHYLNLVLVNCPIELSGVRECIEESEGVDGAVSETASSHLCVKALAKGSEPLLHLREKIARLVTQTTTQKVLEHHHHHH | soluble |
| MNVDEDCYFASLTHGLNTDCRRANAKMKETLKNYNFSAFLVEQNCLRCPNNDCNLSFVLILQKTEFFRLKRDVVFEVRPTIVVHRSFKELVSADRKIRQDITEKNTVGVQASVETVNKFVDACPSICNIQSQTDIMAEKMHIGIQTEEVKFVSEISALGITEVECQNVFPTSFIKTEPVSTSPVRTMEVQQDNDDDDVMFIEIRPRIHEFPSTREIKQEENTTEDTVHLEKVIPEDSVRDVKDEPISEPVEQETSSSSISKELGDSGSSKFSDVADNHTASLNLSMLSQRSTVTSSSISQSIPTPRGRDTPSAAKRAKFSDVEMCRICWDVTFFTTLEEYCNHVQDRHCSVARFKCSSCERKFWDIRSGTQHLKAHNEDGAGNSISHILPEISEEHLSKFINVANQCYPETFRNTQSEKILDIINALP | not soluble |
| MNVLIIEDDPMVDFIHRNYLEKLNLFDRIISSDSMKAVQSILTDYAIDLILLDIHITDGNGIQFLEKWRTQHIPCEVIIISAANDGNIIRDGFHLGIIDYLIKPFTFERFQESIQQFVTHREHLANQQLEQAQIDQLKCLTSKKDTKNKQLLEKGLSESTFQWIMENIKVFDQPFTIQELASACHLSHVSVRKYIAYLEENKQLNSQQIFTKVGRPYRVYW | not soluble |
| MNVLVIGRGGREHALAWKFAQSEKVEKVYVAPGNEGMRDVATPIDIDENDFDALVLFAKENHVELTFVGPEIPLMNGIVDRFKEEGLRVFGPNKAAAVIEGSKAFTKELMKKYNIPTAAYETFTDYEEAVQYIEKVGAPIVIKADGLAAGKGVTVAMTLEEALQAAKEMLQDVKFGEASKKVVIEEFLDGQEFSLMAFVNGTTVHPMVIAQDHKRAFDGDKGPNTGGMGAYSPVPQISESAVQEAIETVLYPTAKAMIQENRSFTGILYAGLILTNDGPKVIEFNARFGDPETEVVLPRLENDLVDVCNAVLDESELTLQWSDEAVIGVVLAAKGYPEAYKKGDIIKGLDALQDVIVFHAGTAMKRGDFVTNGGRVLFVACKANSLQEAKDKVYKEIGKIESDVLFYRSDIGYRAIGHEMTRS | not soluble |
| MNVNIDSEQLFTEEKPKDYAQPEVLCHTFELLSNLHKLLPNRTVEVLHSYRSEEDKRKCEKPEFSGIEKILARHQLPKEINLSPKPSHVPSWKRKIINNISGNWKKCRLWQKSIYEPPMGTIIVRWTKKNLQPSEDLKSVIQRLSALGPIISVTPCGRESAVVVFRDAASACKAVSAFQTMSADSMFHCSWQHRFMSKNKTWSRRYPSKIHAEKKEKHP | not soluble |
| MNVSTSTFQTRRRRLKKVEEEENAATLQLGQEFQLKQINHQGEEEELIALNLSEARLVIKEALVERRRAFKRSQKKHKKKHLKHENANDETTAVEDEDDDLDEDDVNADDDDFMHSETREKELESIDVLLEQTTGGNNKDLKNTMQYLTNFSRFRDQETVGAVIQLLKSTGLHPFEVAQLGSLACDTADEAKTLIPSLNNKISDDELERILKELSNLETLY | soluble |
| MNYGNNGGGQWQPRGNNNWRPQGRGRGGGGWKGNDNRGGYRGGSSNDGGWSNFRDDGNLNFASPYQANRGNFRGNYRGGGGGGGGNQNNYGNRGRGRGGFDRGRGGGGGGNKNFGPIDANKCIIPSMWNNPWDALEKEYEQEYGVAITEKVTDPSPSPSSAEETTA | not soluble |
| MNYHVYHSIDVVNGPGTRCTLFVSGCEHNCKGCYNKSTLNPNSGHLFTKELEDKIIADLNDTRIPRRGLSLSGGDPLHPMNCESVLKLVKRVKSECENKDIWMWTGYTLSELNPTQKEIVDLIDTLIDGRFEQDKADPSLDWRGSSNQIIHTFNVLLEHHHHHH | not soluble |
| MNYSLKQLKVFVTVAQEKSFSRAGERIGLSQSAVSHSVKELENHTGVRLLDRTTREVVLTDAGQQLALRLERLLDELNSTLRDTGRMGQQLSGKVRVAASQTISAHLIPQCIAESHRRYPDIQFVLHDRPQQWVMESIRQGDVDFGIVIDPGPVGDLQCEAILSEPFFLLCHRDSALAVEDYVPWQALQGAKLVLQDYASGSRPLIDAALARNGIQANIVQEIGHPATLFPMVAAGIGISILPALALPLPEGSPLVVKRITPVVERQLMLVRRKNRSLSTAAEALWDVVRDQGNALMAGREGDPLYQI | soluble |
